Source: patent EP1188828A1
One block for each binder: values may come before it.

Legend:
[1] = biological target: rat Reg-binding protein (rat Reg receptor, rat homologue of EXTL3/EXTR1) with N-terminal HA tag (rat); experiment: displacement of ^125I-labeled rat Reg protein (competitor tracer) from CHO cells stably expressing rat Reg receptor
[2] = biological target: rat Reg-binding protein (rat Reg receptor, rat homologue of EXTL3/EXTR1) with N-terminal HA tag (rat); experiment: displacement of ^125I-labeled rat Reg protein from CHO cells stably expressing rat Reg receptor
[3] = biological target: rat Reg-binding protein (rat Reg receptor, rat homologue of EXTL3/EXTR1) with N-terminal HA tag (rat); experiment: radioligand binding on CHO cells stably expressing HA-tagged rat Reg receptor
[4] = biological target: rat Reg-binding protein (rat Reg receptor, rat homologue of EXTL3/EXTR1) with N-terminal HA tag (rat); experiment: cell-based or functional assay

Ki [1]: 7.41 nM
B1: human REG protein (REG Iα) (ligand, UniProt P05451 23-166, looked up)
chain: QEAQTELPQARISCPEGTNAYRSYCYYFNEDRETWVDADLYCQNMNSGNLVSVLTQAEGAFVASLIKESGTDDFNVWIGLHDPKKNRRWHWSSGSLVSYKSWGIGAPSSVNPGYCVSLTSSTGFQKWKDVPCEDKFSFVCKFKN

Ki [2]: 1.61 nM
Kd [3]: 4.41 nM
BrdU incorporation of CHO cell line #3 stably expressing the Reg receptor [4]: 4.01 nM
BrdU incorporation of CHO cell line #22 stably expressing the Reg receptor [4]: 1.11 nM
B2: rat Reg protein (Reg I) (ligand, UniProt P10758 22-165, looked up)
chain: QEAEEDLPSARITCPEGSNAYSSYCYYFMEDHLSWAEADLFCQNMNSGYLVSVLSQAEGNFLASLIKESGTTAANVWIGLHDPKNNRRWHWSSGSLFLYKSWDTGYPNNSNRGYCVSVTSNSGYKKWRDNSCDAQLSFVCKFKA
modifications: [^125I] label by Bolton-Hunter reagent where used as the labelled tracer; unlabeled where used as competitor
